# Experimental data published in patent publication EP2246362B1, “Polymer conjugates of mutated neublastin” (Biogen Idec MA Inc., priority 2003, dated 2004).
# B1: wild-type rat neublastin (NBN113), E. coli derived (ligand)
# chain: AGTRSSRARATDARGCRLRSQLVPVSALGLGHSSDELIRFRFCSGSCRRARSPHDLSLASLLGAGALRSPPGSRPISQPCCRPTRYEAVSFMDVNSTWRTVDHLSATACGCLG
# B2: 4 X 10 kDa PEG NBN106-N95K (ligand)
# chain: ARATDARGCRLRSQLVPVSALGLGHSSDELIRFRFCSGSCRRARSPHDLSLASLLGAGALRSPPGSRPISQPCCRPTRYEAVSFMDVKSTWRTVDHLSATACGCLG
# modifications: 10 kDa PEG on the amino-terminal amino acid and on Lys95 of each chain (PEGylated amino acids 1,1,95,95)
# B3: 3 (,4) X 10 kDa PEG NBN106-N95K: mixed population of NBN106-N95K homodimers conjugated to three or four 10 kDa PEG moieties, average 3.3 PEG per dimer (conjugate)
# chain: ARATDARGCRLRSQLVPVSALGLGHSSDELIRFRFCSGSCRRARSPHDLSLASLLGAGALRSPPGSRPISQPCCRPTRYEAVSFMDVKSTWRTVDHLSATACGCLG
# Columns and labels:
# [1] = target: T1, c-Ret on NB41A3-mRL3 cells (UniProt P35546 29-1115, limits assumed); assay: cell-based or functional assay
# T1 sequence (P35546 29-1115 limits assumed): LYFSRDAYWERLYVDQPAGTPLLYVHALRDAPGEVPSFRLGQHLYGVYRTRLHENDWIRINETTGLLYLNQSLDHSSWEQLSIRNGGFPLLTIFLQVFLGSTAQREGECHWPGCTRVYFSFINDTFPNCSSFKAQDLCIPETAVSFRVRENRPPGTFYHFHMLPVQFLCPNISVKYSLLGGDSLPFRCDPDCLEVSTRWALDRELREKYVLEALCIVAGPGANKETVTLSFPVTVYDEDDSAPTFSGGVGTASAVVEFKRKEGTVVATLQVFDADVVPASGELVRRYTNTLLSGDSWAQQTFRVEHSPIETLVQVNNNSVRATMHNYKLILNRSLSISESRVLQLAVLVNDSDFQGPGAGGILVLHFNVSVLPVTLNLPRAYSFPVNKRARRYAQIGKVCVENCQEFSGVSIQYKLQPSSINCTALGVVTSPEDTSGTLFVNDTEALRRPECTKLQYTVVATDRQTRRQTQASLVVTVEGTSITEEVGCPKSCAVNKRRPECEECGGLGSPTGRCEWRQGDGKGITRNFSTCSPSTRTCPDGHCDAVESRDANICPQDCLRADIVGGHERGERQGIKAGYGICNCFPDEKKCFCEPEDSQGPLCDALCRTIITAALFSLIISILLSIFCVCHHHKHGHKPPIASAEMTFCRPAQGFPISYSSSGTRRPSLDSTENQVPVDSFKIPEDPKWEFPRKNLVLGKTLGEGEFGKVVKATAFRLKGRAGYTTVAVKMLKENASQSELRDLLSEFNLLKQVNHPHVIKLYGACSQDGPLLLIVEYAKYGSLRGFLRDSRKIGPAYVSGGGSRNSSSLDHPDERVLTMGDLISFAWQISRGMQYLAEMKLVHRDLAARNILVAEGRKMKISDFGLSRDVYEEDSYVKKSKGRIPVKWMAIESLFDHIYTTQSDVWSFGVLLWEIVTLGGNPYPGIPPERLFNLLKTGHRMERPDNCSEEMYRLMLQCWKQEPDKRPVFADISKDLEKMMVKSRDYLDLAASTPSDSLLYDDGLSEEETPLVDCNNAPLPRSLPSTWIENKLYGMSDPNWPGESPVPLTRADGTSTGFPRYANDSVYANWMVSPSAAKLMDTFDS
# [2] = target: T1, c-Ret on NB41A3-mRL3 cells; assay: cell-based or functional assay; remark: listed apart in the source
# c-Ret = target: T2, c-Ret (Mus musculus, UniProt O35118+P35546); assay: Kinase Receptor Activation (KIRA) ELISA: neublastin dependent phosphorylation of c-Ret in NB41A3-mRL3 cells; type: cell-based, murine
# T2 construct: NB41A3-mRL3 cells, an adherent murine neuroblastoma cell line which expresses Ret and GFRα3; endogenous in cells; host or cells: NB41A3-mRL3 (murine neuroblastoma)
# T2 sequence (P35546 29-1115): as the sequence (P35546 29-1115 limits assumed) above
# T2 sequence (O35118 29-397): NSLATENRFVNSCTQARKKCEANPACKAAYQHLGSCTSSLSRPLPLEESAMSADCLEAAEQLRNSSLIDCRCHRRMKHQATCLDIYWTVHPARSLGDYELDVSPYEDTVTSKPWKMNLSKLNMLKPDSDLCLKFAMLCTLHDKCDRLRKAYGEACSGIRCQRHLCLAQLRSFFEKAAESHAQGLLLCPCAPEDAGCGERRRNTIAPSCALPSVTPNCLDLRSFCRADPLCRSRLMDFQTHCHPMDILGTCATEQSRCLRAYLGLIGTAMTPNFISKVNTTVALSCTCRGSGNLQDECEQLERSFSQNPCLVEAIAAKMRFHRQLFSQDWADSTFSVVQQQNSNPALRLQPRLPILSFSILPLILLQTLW
# Description: The potency of PEGylated mutated rat neublastin was measured using neublastin dependent activation/ phosphorylation of c-Ret as a reporter for neublastin activity in an ELISA that was specific for the presence of phosphorylated RET. NB41A3-mRL3 cells, an adherent murine neuroblastoma cell line which expresses Ret and GFRα3, were plated at 2 x 10^5 cells per well in 24-well plates in Dulbecco's modified eagle medium (DMEM), supplemented with 10 % fetal bovine serum, and cultured for 18 h at 37 °C and 5 % CO2.
# The cells were washed with PBS, and treated with serial dilutions of neublastin in 0.25 mL of DMEM for 10 min at 37°C and 5 % CO2. Each sample was analyzed in duplicate. The cells were washed with 1 mL of PBS, and lysed for 1h at 4 °C with 0.30 mL of 10 mM Tris HC1, pH 8.0, 0.5 % Nonidet P40, 0.2 % sodium deoxycholate, 50 mM NaF, 0.1 mM Na3 VO4,1 mM phenylmethylsulfonyl fluoride with gently rocking the plates. The lysates were further agitated by repeated pipetting and 0.25 mL of sample was transferred to a 96-well ELISA plate that had been coated with 5 µg/mL of anti-Ret mAb (AA.GE7.3) in 50 mM carbonate buffer, pH 9.6 at 4°C for 18 h, and blocked at room temperature for one hour with block buffer (20 mM Tris HC1 pH 7.5, 150 mM NaCl, 0.1% Tween-20 (TBST) containing 1 % normal mouse serum and 3 % bovine serum albumin).
# After a 2 h incubation at room temperature, the wells were washed 6-times with TBST. Phosphorylated Ret was detected by incubating the wells at room temperature for 2 h with 2 µg/mL of horseradish peroxidase (HRP)-conjugated anti-phosphotyrosine 4G10 antibody in block buffer, washing 6-times with TBST, and measuring HRP activity at 450 nm with a colorometric detection reagent. The absorbance values from wells treated with lysate or with lysis buffer were measured and the background corrected signal was plotted as a function of the concentration of neublastin present in the activation mixture.
# Neublastin activity was determined by its ability to stimulate c-Ret phosphorylation in NB41A3-mRL3 cells using the KIRA ELISA described in Example 3. Phosphorylated Ret was detected by incubating (2 hours) the captured receptor with HRP-conjugated phosphotyrosine antibody (4G10; 0.2 µg per well). Following the incubation, the wells were washed six times with TBST, and the HRP activity detected at 450 nm with a colorimetric assay. The absorbance values from wells treated with lysate or with lysis buffer alone were measured, background corrected, and the data plotted as a function of the concentration of neublastin present in the activation mixture.
# [3] = test system: Chung L5/L6 spinal nerve ligation ("SNL") model; assay: Reversal of tactile allodynia and thermal hyperalgesia in the spinal nerve ligation model (Von Frey and Hargreave's tests); type: in vivo, Sprague-Dawley male rats
# Description: Here, we describe studies to address the reversal effect ofpegylated N95K neublastin on tactile allodynia and thermal hyperalgesia in the Chung L5/L6 spinal nerve ligation ("SNL") model. Sprague-Dawley male rats (230 - 380g) were divided into two groups. All rats received the spinal nerve ligation. One group of rats (n=6) was administered vehicle by subcutaneous injection. A second group of rats (n=6 per group) were administered pegylated N95K neublastin (3,(4) X 10 kDa PEG NBN106-N95K) by subcutaneous injection at 10 µg/kg. 3(,4) X 10 kDa PEG NBN106-N95K, comprised neublastin protein that was E. coli-derived and contained an Asn-to-Lys amino acid substitution at position 95, then truncated (amino-terminus truncation of 7 amino acids; NBN106), and finally pegylated with an average of 3.3 PEG moieties per dimer ofNBN, using methoxylpoly(ethylene glycol)-succinimidyl propionate (SPA-PEG) with a molecular mass of 10,000 Da as the reactant. The vehicle consisted of 5 mM phosphate and 150 mM sodium chloride at pH 6.5. Subcutaneous injections were administered on days 3, 5, 7, 10, 12 and 14 following the operation (post-SNL). The Von Frey (Chaplan et al. (1994), J. Neurosci. Meth. 53: 55-63) and Hargreave's (Hargreaves et al. (1988), Pain. 32: 77-88) behavioral tests were used to monitor tactile and thermal responses, respectively. These pain responses were monitored prior to the spinal nerve ligation to establish baseline responses, on day 2 post-SNL to verify the presence of tactile and thermal hyperalgesia, and then on days 3, 5, 7, 10, 12, 14 and 15 post-SNL. To assess statistical significance of drug treatment relative to vehicle treatment, a 1-way analysis of variance (1-way ANOVA) was carried out followed by a post-hoc Student Neuman Keuls (SNK) test.
# [4] = Pharmacokinetic studies in rats (circulating levels after IV, s.c. or i.p. administration); type: in vivo, Sprague Dawley rats
# Description: The proteins were below the threshold of detection in the serum following subcutaneous administration. To increase bioavailability of neublastin, PEGylated forms of mutated neublastin were constructed.
# The pharmokinetic properties of various PEGylated and non-PEGylated mutated neublastin products in rat and mouse models were examined (see Table 8 for summary of results).
# Following a 1 mg/kg IV administration in Sprague Dawley rats, peak levels of PEGylated mutated neublastin of 3000 ng/mL were detected after 7 minutes, and levels of 700 ng/mL were detected after 24 h, 200 ng/mL after 48 h, and 100 ng/mL after 72 h. In contrast for non-PEGylated mutated neublastin N95K following a 1 mg/kg IV administration, levels of 1500 ng/mL were detected after 7 minutes, but then the levels quickly dropped to 70 ng/mL after 3 h and were not detectable after 7 h. The effects of PEGylation were even more pronounced in animals treated with PEGylated neublastin by subcutaneous administration.
# Following a 1 mg/kg s.c. administration, circulating levels of PEGylated neublastin reached a maximum of 200 ng/mL after 24 h and remained at this level for the duration of the three day study.
# The analysis of the PEGylated N95K samples are complicated by the presence of adducts comprising 2, 3 and 4 PEGs per molecule, which each will display a different PK profile. In early PK studies, mice were used to facilitate screening through a variety of candidates and routes of administration. […] This difference in bioavailability was particularly pronounced following i.p. administration. Levels in mice reached 1600 ng/mL after 7 hr and remained at 400 ng/mL after 24 hr. In contrast, rat levels were constant at 100 ng/mL for 4-48 hr.
# [5] = parameters: species or system mice; conditions: mouse, in vivo
# Description: The pharmokinetic properties of various PEGylated and non-PEGylated mutated neublastin products in rat and mouse models were examined (see Table 8 for summary of results). The analysis of the PEGylated […] samples are complicated by the presence of adducts comprising 2, 3 and 4 PEGs per molecule, which each will display a different PK profile. In early PK studies, mice were used to facilitate screening through a variety of candidates and routes of administration. […] This difference in bioavailability was particularly pronounced following i.p. administration. Levels in mice reached 1600 ng/mL after 7 hr and remained at 400 ng/mL after 24 hr. In contrast, rat levels were constant at 100 ng/mL for 4-48 hr. Two surprising and unexpected results emerged from the PK studies summarized in Table 8: 1) PEGylation of the amino-terminal amino acids of non-glycosylated neublastin was not sufficient to increase serum exposure substantially, and 2) PEGylation of the amino-terminal amino acid(s) of neublastin together with modification (e.g. PEGylation or glycosylation) of amino acid 95 was sufficient to increase serum exposure substantially.
Molecule,IC50 in the KIRA ELISA [1] [nM],specific activity in the KIRA ELISA [1] [nM],KIRA: ∼Max Efficacy vs WT [2] [%],"KIRA ELISA (potency in activating Ret, fold less than wild-type NBN113) [1] [fold]",KIRA: ∼EC50 [2] [nM],activity / potency in the KIRA ELISA (in words) (c-Ret; compared with wild-type NBN113 / mature form),effect of two freeze-thaw cycles on potency (c-Ret; potency in KIRA ELISA after two freeze-thaw cycles),"normalization of pain behaviors (tactile and thermal hyperalgesia) ([3]; 3 µg/kg s.c. on days 3, 5, 7, 10, 12 and 14, data not shown, onset somewhat slower)","reversal of both types of neuropathic pain (tactile allodynia and thermal hyperalgesia) ([3]; 10 µg/kg s.c. on days 3, 5, 7, 10, 12 and 14 post-SNL, rats)","time after initiation of administration at which effect on thermal sensitivity and tactile allodynia first became statistically significant ([3]; 10 µg/kg s.c., rats) [days]","time after initiation of administration at which effect on thermal sensitivity and tactile allodynia reached a plateau ([3]; 10 µg/kg s.c., rats)","levels after 7 minutes ([4]; 1 mg/kg IV, Sprague Dawley rats, 7 minutes) [ng/mL]","levels after 24 h ([4]; 1 mg/kg IV, Sprague Dawley rats, 24 h) [ng/mL]","levels after 48 h ([4]; 1 mg/kg IV, Sprague Dawley rats, 48 h) [ng/mL]","maximum circulating levels ([4]; 1 mg/kg s.c., maximum after 24 h, remained at this level for the three day study) [ng/mL]",levels in mice after 7 hr ([5]; ip) [ng/mL],levels in mice after 24 hr ([5]; ip) [ng/mL],Exposure in Mice After s.c. Administration ([5]; sc)
B1,3 to 6,~10,~100,,,,,,,,,,,,,,,
B2,,,> 80,~10,~11,,,,,,,,,,,,,
B3,,,,,,indistinguishable from that of the wild-type NBN113 material,no effect,significant normalization,substantial and statistically significant reversal,4,approximately 4 days,3000,700,200,200,1600,400,++
